The text below walks through data of US20180118786A1 (published 2018).

Starred links: 1 amine or outer side, 2 acyl side, 3 side chain; linkers in the order of their positions; H or OH if unused. Positions of bridges follow the written chain, without caps; N, C: chain ends. Non-standard residues stand in square brackets, D forms with d. No end group written: not given here. TATA = O=C(CC[*:1])N1CN(C(=O)CC[*:2])CN(C(=O)CC[*:3])C1; Phe(4-guanidino) = N=C(N)Nc1ccc(C[C@H](N)C(=O)O)cc1; hArg = N=C(N)NCCCC[C@H](N)C(=O)O; Agb = N=C(N)NCC[C@H](N)C(=O)O; hLys = NCCCCC[C@H](N)C(=O)O

The labels stand for the following.
T1: human β-FXIIa (HFXIIAB; Molecular Innovations) (human, UniProt P00748 354-362; P00748 373-615)
T1 chain 1: NGPLSCGQR
T1 chain 2: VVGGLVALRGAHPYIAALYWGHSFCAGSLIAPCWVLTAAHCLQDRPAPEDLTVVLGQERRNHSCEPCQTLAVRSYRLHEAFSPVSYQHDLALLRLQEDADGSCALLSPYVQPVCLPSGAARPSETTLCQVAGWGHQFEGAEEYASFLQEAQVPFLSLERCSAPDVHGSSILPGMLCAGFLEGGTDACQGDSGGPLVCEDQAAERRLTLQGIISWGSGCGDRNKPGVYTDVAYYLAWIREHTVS

B1: Alanine (30), Leu10 (peptide)
chain: RCFRLPCRQARCR
B2: Methionine (27), Leu10 (peptide)
chain: RCFRLPCRQMRCR
B3: peptide 26 (peptide 2, Leu10 to isoleucine) (peptide)
peptide: RCFRLPCRQIRCRW-NH2
modifications: linker 2-7-12 via TATA; N-terminus assumed
SMILES: CC[C@H](C)[C@@H]1NC(=O)[C@H](CCC(N)=O)NC(=O)[C@H](CCCNC(=N)N)NC(=O)[C@@H]2CSCCC(=O)N3CN(CN(C3)C(=O)CCSC[C@H](NC(=O)[C@@H](N)CCCNC(=N)N)C(=O)N[C@@H](Cc3ccccc3)C(=O)N[C@@H](CCCNC(=N)N)C(=O)N[C@@H](CC(C)C)C(=O)N3CCC[C@H]3C(=O)N2)C(=O)CCSC[C@@H](C(=O)N[C@@H](CCCNC(=N)N)C(=O)N[C@@H](Cc2c[nH]c3ccccc23)C(N)=O)NC(=O)[C@H](CCCNC(=N)N)NC1=O
B4: Valine (25), Leu10 (peptide)
chain: RCFRLPCRQVRCR
B5: peptide 38 (peptide 2, Arg4 to homolysine) (peptide)
peptide: RCF[hLys]LPCRQLRCRW-NH2
modifications: linker 2-7-12 via TATA
B6: peptide 39 (peptide 2, Arg4 to homoarginine) (peptide)
peptide: RCF[hArg]LPCRQLRCRW-NH2
modifications: linker 2-7-12 via TATA
B7: peptide 41 (peptide 2, Arg4 to 4-guanidinophenylalanine) (peptide)
peptide: H-RCF[Phe(4-guanidino)]LPCRQLRCRW-NH2
modifications: linker 2-7-12 via TATA
SMILES: CC(C)C[C@@H]1NC(=O)[C@H](CCC(N)=O)NC(=O)[C@H](CCCNC(=N)N)NC(=O)[C@@H]2CSCCC(=O)N3CN(CN(C3)C(=O)CCSC[C@H](NC(=O)[C@@H](N)CCCNC(=N)N)C(=O)N[C@@H](Cc3ccccc3)C(=O)N[C@@H](Cc3ccc(NC(=N)N)cc3)C(=O)N[C@@H](CC(C)C)C(=O)N3CCC[C@H]3C(=O)N2)C(=O)CCSC[C@@H](C(=O)N[C@@H](CCCNC(=N)N)C(=O)N[C@@H](Cc2c[nH]c3ccccc23)C(N)=O)NC(=O)[C@H](CCCNC(=N)N)NC1=O
B8: peptide 40 (peptide 2, Arg4 to norarginine) (peptide)
peptide: H-RCF[Agb]LPCRQLRCRW-NH2
modifications: linker 2-7-12 via TATA
B9: peptide 8 (peptide 2, Phe3 to isoleucine) (peptide)
peptide: RCIRLPCRQLRCRW-NH2
modifications: linker 2-7-12 via TATA; N-terminus assumed
SMILES: CC[C@H](C)[C@@H]1NC(=O)[C@@H](NC(=O)[C@@H](N)CCCNC(=N)N)CSCCC(=O)N2CN3CN(C2)C(=O)CCSC[C@H](NC(=O)[C@@H]2CCCN2C(=O)[C@H](CC(C)C)NC(=O)[C@H](CCCNC(=N)N)NC1=O)C(=O)N[C@@H](CCCNC(=N)N)C(=O)N[C@@H](CCC(N)=O)C(=O)N[C@@H](CC(C)C)C(=O)N[C@@H](CCCNC(=N)N)C(=O)N[C@H](C(=O)N[C@@H](CCCNC(=N)N)C(=O)N[C@@H](Cc1c[nH]c2ccccc12)C(N)=O)CSCCC3=O
B10: peptide 4 (peptide 2, Phe3 to tyrosine) (peptide)
peptide: RCYRLPCRQLRCRW-NH2
modifications: linker 2-7-12 via TATA; N-terminus assumed
SMILES: CC(C)C[C@@H]1NC(=O)[C@H](CCC(N)=O)NC(=O)[C@H](CCCNC(=N)N)NC(=O)[C@@H]2CSCCC(=O)N3CN(CN(C3)C(=O)CCSC[C@H](NC(=O)[C@@H](N)CCCNC(=N)N)C(=O)N[C@@H](Cc3ccc(O)cc3)C(=O)N[C@@H](CCCNC(=N)N)C(=O)N[C@@H](CC(C)C)C(=O)N3CCC[C@H]3C(=O)N2)C(=O)CCSC[C@@H](C(=O)N[C@@H](CCCNC(=N)N)C(=O)N[C@@H](Cc2c[nH]c3ccccc23)C(N)=O)NC(=O)[C@H](CCCNC(=N)N)NC1=O
B11: peptide 6 (peptide 2, Phe3 to alanine) (peptide)
peptide: RCARLPCRQLRCRW-NH2
modifications: linker 2-7-12 via TATA; N-terminus assumed
SMILES: CC(C)C[C@@H]1NC(=O)[C@H](CCC(N)=O)NC(=O)[C@H](CCCNC(=N)N)NC(=O)[C@@H]2CSCCC(=O)N3CN(CN(C3)C(=O)CCSC[C@H](NC(=O)[C@@H](N)CCCNC(=N)N)C(=O)N[C@@H](C)C(=O)N[C@@H](CCCNC(=N)N)C(=O)N[C@@H](CC(C)C)C(=O)N3CCC[C@H]3C(=O)N2)C(=O)CCSC[C@@H](C(=O)N[C@@H](CCCNC(=N)N)C(=O)N[C@@H](Cc2c[nH]c3ccccc23)C(N)=O)NC(=O)[C@H](CCCNC(=N)N)NC1=O
B12: peptide 7 (peptide 2, Phe3 to valine) (peptide)
peptide: RCVRLPCRQLRCRW-NH2
modifications: linker 2-7-12 via TATA; N-terminus assumed
SMILES: CC(C)C[C@@H]1NC(=O)[C@H](CCC(N)=O)NC(=O)[C@H](CCCNC(=N)N)NC(=O)[C@@H]2CSCCC(=O)N3CN(CN(C3)C(=O)CCSC[C@H](NC(=O)[C@@H](N)CCCNC(=N)N)C(=O)N[C@@H](C(C)C)C(=O)N[C@@H](CCCNC(=N)N)C(=O)N[C@@H](CC(C)C)C(=O)N3CCC[C@H]3C(=O)N2)C(=O)CCSC[C@@H](C(=O)N[C@@H](CCCNC(=N)N)C(=O)N[C@@H](Cc2c[nH]c3ccccc23)C(N)=O)NC(=O)[C@H](CCCNC(=N)N)NC1=O
B13: peptide 66 (FXII618, Arg1 to alanine) (peptide)
peptide: ACFRLPCRQLRCR-NH2
modifications: linker 2-7-12 via TATA; N-terminus assumed
SMILES: CC(C)C[C@@H]1NC(=O)[C@H](CCC(N)=O)NC(=O)[C@H](CCCNC(=N)N)NC(=O)[C@@H]2CSCCC(=O)N3CN(CN(C3)C(=O)CCSC[C@@H](C(=O)N[C@@H](CCCNC(=N)N)C(N)=O)NC(=O)[C@H](CCCNC(=N)N)NC1=O)C(=O)CCSC[C@H](NC(=O)[C@H](C)N)C(=O)N[C@@H](Cc1ccccc1)C(=O)N[C@@H](CCCNC(=N)N)C(=O)N[C@@H](CC(C)C)C(=O)N1CCC[C@H]1C(=O)N2
B14: peptide 65 (FXII618, Arg1 to valine) (peptide)
peptide: VCFRLPCRQLRCR-NH2
modifications: linker 2-7-12 via TATA; N-terminus assumed
SMILES: CC(C)C[C@@H]1NC(=O)[C@H](CCC(N)=O)NC(=O)[C@H](CCCNC(=N)N)NC(=O)[C@@H]2CSCCC(=O)N3CN(CN(C3)C(=O)CCSC[C@H](NC(=O)[C@@H](N)C(C)C)C(=O)N[C@@H](Cc3ccccc3)C(=O)N[C@@H](CCCNC(=N)N)C(=O)N[C@@H](CC(C)C)C(=O)N3CCC[C@H]3C(=O)N2)C(=O)CCSC[C@@H](C(=O)N[C@@H](CCCNC(=N)N)C(N)=O)NC(=O)[C@H](CCCNC(=N)N)NC1=O
B15: FXII618 variant with R in position 1 replaced by homolysine (peptide)
peptide: [hLys]CFRLPCRQLRCR-NH2
modifications: linker 2-7-12 via TATA; N-terminus assumed
SMILES: CC(C)C[C@@H]1NC(=O)[C@H](CCC(N)=O)NC(=O)[C@H](CCCNC(=N)N)NC(=O)[C@@H]2CSCCC(=O)N3CN(CN(C3)C(=O)CCSC[C@H](NC(=O)[C@@H](N)CCCCCN)C(=O)N[C@@H](Cc3ccccc3)C(=O)N[C@@H](CCCNC(=N)N)C(=O)N[C@@H](CC(C)C)C(=O)N3CCC[C@H]3C(=O)N2)C(=O)CCSC[C@@H](C(=O)N[C@@H](CCCNC(=N)N)C(N)=O)NC(=O)[C@H](CCCNC(=N)N)NC1=O
B16: peptide 64 (FXII618, Arg1 to isoleucine) (peptide)
peptide: ICFRLPCRQLRCR-NH2
modifications: linker 2-7-12 via TATA; N-terminus assumed
SMILES: CC[C@H](C)[C@H](N)C(=O)N[C@H]1CSCCC(=O)N2CN3CN(C2)C(=O)CCSC[C@H](NC(=O)[C@@H]2CCCN2C(=O)[C@H](CC(C)C)NC(=O)[C@H](CCCNC(=N)N)NC(=O)[C@H](Cc2ccccc2)NC1=O)C(=O)N[C@@H](CCCNC(=N)N)C(=O)N[C@@H](CCC(N)=O)C(=O)N[C@@H](CC(C)C)C(=O)N[C@@H](CCCNC(=N)N)C(=O)N[C@H](C(=O)N[C@@H](CCCNC(=N)N)C(N)=O)CSCCC3=O

The first assay has as its target T1, human β-FXIIa (HFXIIAB; Molecular …). Put plainly: enzyme inhibition.
As for B1, the affinity, expressed as Ki, was 2660 nM. In other words, the single-digit micromolar range.
The same measure, in the same setting: the result for B2 reads 364 nM.
On the same count and under the same terms, the result for B3 reads 199 nM; that for B4, 830 nM.

A further assay has the same target. Description: enzyme inhibition. This is another data set of the same source.
B5: the affinity, expressed as Ki, was 131 nM.
Still for that read-out and setting: the same measure for B6: 181 nM; for B7: 976 nM.
Same read-out and setting: the same measure for B8: 397 nM.

For another assay the target is unchanged. Description: enzyme inhibition. The source holds these as a separate data set.
For the molecule B9, the Ki (usually a dissociation constant, usually derived from enzyme kinetics or from competition with a known ligand) was found to be 2010 nM.
The same measure, in the same setting: the result for B10 reads 82 nM; that for B11, 336 nM; that for B12, 413 nM.

The next assay shares this target. Description: enzyme inhibition. The source holds these as a separate data set.
For the molecule B13, the Ki was found to be 177 nM.
On the same count and under the same terms, the same measure for B14: 287 nM; for B15: 18.5 nM.
On the same count and under the same terms, the result for B16 reads 231 nM.
